Experimental data from patent publication US20040143098, “Method for improving plant tolerance to environmental stress” (published 2004).

B1: ABRE A (dsDNA)
DNA 1: TGGAAGCTTCGCGCCACGTGGGCATGAGATCT
DNA 2: TGGAGATCTCATGCCCACGTGGCGCGAAGCTT
B2: DRE1 (dsDNA)
DNA 1: GGGGTCGAGAAGAACCGAGACGAAGCGGTCGAG
DNA 2: GGGGCTCGACCGCTTCGTCTCGGTTCTTCTCGA

Experiments:
[1] = target: DBF1 (Zea mays); experiment: EMSA; same buffer; ABRE reported as not bound; conditions: tags: pET28 tag (about 31 aa), expressed in E. coli; label: 32P
Sequence of DBF1 (Zea mays) (chain, as listed by the source): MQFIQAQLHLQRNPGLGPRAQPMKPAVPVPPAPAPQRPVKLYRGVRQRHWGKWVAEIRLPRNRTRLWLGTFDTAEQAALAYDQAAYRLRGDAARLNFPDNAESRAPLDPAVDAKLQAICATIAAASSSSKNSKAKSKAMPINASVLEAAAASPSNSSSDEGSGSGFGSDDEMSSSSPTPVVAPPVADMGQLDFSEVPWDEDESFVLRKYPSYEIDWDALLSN
Description: (§1) The following DNA oligonucleotides were used in electrophoretic mobility shift assays: DRE2 (SEQ ID NO 4 and 5), DRE2 m (SEQ ID NOs 6 and 7), DRE1 (SEQ ID NO 8 and 9), DRE1/ABRE1 (SEQ ID NOs 10 and 11), ABRE A (SEQ ID Nos12 and 13). The full-length oligonucleotides were purified by denaturing PAGE. Complementary oligonucleotides were annealed and purified in nondenaturing polyacrylamide gel. The double-stranded oligonucleotides were labelled with α³² P-dATP (3000 Ci/mmol, Amersham) by filling in with the Klenow fragment of the DNA polymerase I (Sambrook et al., 1989) and purified on a NAP5 column (Pharmacia), according to the manufacturers instructions. Unlabeled competitor DNA was filled in with nonradioactive nucleotides.
(§2) The radioactive probe was incubated with 400 ng of protein in 20 μl of 1× binding buffer (25 mM HEPES, pH 7.8, 75 mM KCl, 5 mM MgCl_{2,} 0.5 mM EDTA, 0.2 mM DTT and 10% glycerol) and 700 ng poly(dl-dC) for 20 min on ice before loading on a 1× Tris-borate-EDTA, 5% (30:0.8 acrylamide-bis) polyacrylamide gel. Electrophoresis was at 10 V/cm at 4° C. In competition assays the protein was incubated with non-radioactive oligonucleotides in 1× binding buffer, on ice for 10 min prior to adding the radioactive probe and continuing with incubation for 20 min more.

[2] = target: DBF1 (Zea mays); experiment: EMSA; same buffer; conditions: tags: pET28 tag (about 31 aa), expressed in E. coli; label: 32P
Description: as §1, §2

Row | Binder | binding result [1] | binding result [2]
1 | B1 | no binding | –
2 | B2 | – | no binding
